# Experimental data: patent publication US12303551B2, “Cellular immunotherapy compositions and uses thereof” (CERO THERPEUTICS HOLDINGS, INC., priority 2018, dated 2025)
# How the values were obtained:
# [1] = test system: SCC152 cells; test: Magnitude breadth analysis of phagocytosis by CER type (pHrodo red / CELLTRACE violet microscopy); type: cell-based; conditions: CD4+ T cells, pHrodo red stained SCC152
# Description: Top image is an enlargement of a cell in the lower left image showing a SCC152 cell engulfed by CER126-transduced CD4+ T cell. […] White arrow indicates CD8+ T cell transduced with E7-specific TCR and that is pHrodo Red negative (lower left panel of FIG. 60B). Software rendition of phagocytosis (lower right panel of FIG. 60B).
# Various CER-modified CD4+ T cells were also evaluated for breadth of response to determine whether a particular CER confers a broad phagocytic response of low magnitude (e.g., 10% engulfment in 90% of cells) or a less frequent but strong phagocytic response (e.g., 90% engulfment in 10% of cells) in the host cells. CD8+ T cells were transduced with HPV16 E7 specific TCR as described in Example 1. CD4+ T cells were transduced with lentiviral vectors comprising a CER21, CER27, CER104, CER116, or CER117 nucleic acid. Mock-transduced (vector alone) CD4+ T cell were used as control. CD4+/CER+ and CD8+/E7 TCR+ T cells were stained with CELLTRACE violet. HPV16 E7+ head and neck squamous cell carcinoma cells (SCC152) were stained with pHrodo red. HPV16 E7 TCR transduced CD8+ T cells and selected CER transduced CD4+ T cells were mixed at a 1:1 ratio and co-cultured with SCC152 cells at a 1:1 ratio for 8 hours. Phagocytosis of target SCC152 cells by CER-transduced CD4+ T cells was analyzed by fluorescence microscopy. […] The horizontal axis represents the % area of CER-transduced CD4+ T cells having engulfment or % area of the CER-transduced CD4+ T cells taken up by target SCC152 cells. This measure was rarely above 40% across CER types tested. The vertical axis represents the proportion of CER-transduced CD4+ T cells that were phagocytic. For CER104, about 20% of CER104-transduced CD4+ T cells have more than 10% engulfment. For CER117-transduced CD4+ T cells, less than 10% have more than 10% engulfment.
# [2] = test system: HCC827 adenocarcinoma cells; test: HCC827 xenograft in NSG mice with osimertinib, bioluminescence imaging and immunofluorescence; type: in vivo
# Description: Growth of HCC827/luceriferase^+ cells in NSG mice upon adoptive transfer of purified hCER122 modified CD4+ T cells or hCER122 modified CD+ T cells with concomitant targeted inhibitor therapy was measured by bioluminescence imaging. Data represents mean values (n=5 mice/treatment group).
# Tumor specimens were stained with anti-EGFR (tumor antigen), anti-CD4, anti-PD1, and DAPI counter-stain (left image).
# CD3+ or CD4+ T cells were purified from PBMCs, activated, and transduced with lentiviral vector comprising hCER122 nucleic acid. hCER122 is a human CER122 construct comprising a Tim4 binding domain, a Tim4 transmembrane domain, TLR2 engulfment signaling domain, and Dap12 engulfment signaling domain and comprises an amino acid sequence of SEQ ID NO:179. Transduced T cells were expanded. hCER122 modified CD3+ T cells (2.5×10^6 or 5×10^6) or hCER122 modified CD4+ T cells (2.5×10^6 or 5×10^6) were infused into NSG mice engrafted with HCC827 adenocarcinoma cells (2 million/mouse). HCC827 xenograft mice also received 1 mg/kg osimertinib post-engraftment. […] Microscopy images of immunofluorescence stained tumor cells from HCC827 xenograft model at day 16. Tumor specimens were stained with anti-EGFR (tumor antigen), anti-CD4, anti-PD1, and DAPI counter-stain.
# [3] = test system: HPV+ SCC152/luceriferase+ cells; test: SCC152/luciferase xenograft in NSG mice, bioluminescence imaging; type: in vivo; conditions: E7 TCR CD8+ T cells + mock transduced CD4+ T cells; compared to untreated controls
# Description: HPV+ SCC152 engrafted NSG mice were treated with HPV E7 TCR modified CD8+ T cells+CD4+ T cells (mock transduced), HPV E7 TCR modified CD8+ T cells+hCER104 modified CD4+ T cells, or untreated. FIG. 74B is a graph of mean values of bioluminescence signal intensities obtained for treatment group.
# HPV+ SCC152/luceriferase^+ cells were engrafted in NSG mice. Once tumors were established, mice were treated with HPV E7 specific TCR (SEQ ID NO:84) modified CD8+ T cells+mock transduced CD4+ T cells, HPV E7 specific TCR modified CD8+ T cells+hCER104 (SEQ ID NO:176) modified CD4+ T cells, or untreated (n=5 per treatment group). HPV E7 CD8+ T cells and hCER104 CD4+ T cells were administered at a 1:1 ratio. Tumor volume was measured over time by bioluminescence imaging (see, FIGS. 74A-74B).
molecule,measurement,setting,value
"CER126: Chimeric engulfment receptor: Tim4 binding, Tim4 transmembrane, TLR2 and TRAF2 signaling; SEQ ID NO: 169 (protein, CER126, amino acids 1-22 are signal peptide) MSKGLLLLWLVTELWWLYLTPAASEDTIIGFLGQPVTLPCHYLSWSQSRNSMCWGKGSCPNSKCNAELLRTDGTRIISRKSTKYTLLGKVQFGEVSLTISNTNRGDSGVYCCRIEVPGWFNDVKKNVRLELRRATTTKKPTTTTRPTTTPYVTTTTPELLPTTVMTTSVLPTTTPPQTLATTAFSTAVTTCPSTTPGSFSQETTKGSAFTTESETLPASNHSQRSMMTISTDIAVLRPTGSNPGILPSTSQLTTQKTTLTTSESLQKTTKSHQINSRQTILIIACCVGFVLMVLLFLAFLHRFHGLWYMKMMWAWLQAKRKPRKAPSRNICYDAFVSYSERDAYWVENLMVQELENFNPPFKLCLHKRDFIPGKWIIDNIIDSIEKSHKTVFVLSENFVKSEWCKYELDFSHFRLFDENNDAAILILLEPIEKKAIPQRFCKLRKIMNTKTYLEWPMDEAQREGFWVNLRAAIKSMAAASVTPPGSLELLQPGFSKTLLGTKLEAKYLCSACRNVLRRPFQAQCGHRYCSFCLASILSSGPQNCAACVHEGIYEEGISILESSSAFPDNAARREVESLPAVCPSDGCTWKGTLKEYESCHEGRCPLMLTECPACKGLVRLGEKERHLEHECPERSLSCRHCRAPCCGADVKAHHEVCPKFPLTCDGCGKKKIPREKFQDHVKTCGKCRVPCRFHAIGCLETVEGEKQQEHEVQWLREHLAMLLSSVLEAKPLLGDQSHAGSELLQRCESLEKKTATFENIVCVLNREVERVAMTAEAC",engulfment of SCC152 target cells seen in fluorescent micrographs,[1],engulfed
"hCER122: human CER122 construct: Tim4 binding domain, Tim4 transmembrane domain, TLR2 and Dap12 engulfment signaling domains; SEQ ID NO:179 (protein, hCER122) ETVVTEVLGHRVTLPCLYSSWSHNSNSMCWGKDQCPYSGCKEALIRTDGMRVTSRKSAKYRLQGTIPRGDVSLTILNPSESDSGVYCCRIEVPGWFNDVKINVRLNLQRASTTTHRTATTTTRRTTTTSPTTTRQMTTTPAALPTTVVTTPDLTTGTPLQMTTIAVFTTANTCLSLTPSTLPEEATGLLTPEPSKEGPILTAESETVLPSDSWSSVESTSADTVLLTSKESKVWDLPSTSHVSMWKTSDSVSSPQPGASDTAVPEQNKTTKTGQMDGIPMSMKNEMPISQLLMIIAPSLGFVLFALFVAFLHRFHGLWYMKMMWAWLQAKRKPRKAPSRNICYDAFVSYSERDAYWVENLMVQELENFNPPFKLCLHKRDFIPGKWIIDNIIDSIEKSHKTVFVLSENFVKSEWCKYELDFSHFRLFDENNDAAILILLEPIEKKAIPQRFCKLRKIMNTKTYLEWPMDEAQREGFWVNLRAAIKSYFLGRLVPRGRGAAEAATRKQRITETESPYQELQGQRSDVYSDLNTQRPYYK",anti-tumor response (bioluminescence),"[2]; CER-modified CD3+ and CD4+ T cells plus 1 mg/kg osimertinib, compared to osimertinib alone",enhanced anti-tumor responses
same,tumor elimination (bioluminescence),[2]; CER-modified CD4+ T cells plus 1 mg/kg osimertinib,eliminated tumors
same,"T cell infiltration of tumor, immunofluorescence staining","[2]; day 16, anti-EGFR, anti-CD4, anti-PD1, DAPI",infiltration of PD1+CD4+ T cells (functionally active) into tumor stroma
"HPV E7 specific TCR: HPV16 E7 specific TCR (see WO2015/184228), TCRβ and TCRα chains joined by P2A; SEQ ID NO:84; expressed in CD8+ T cells (protein, HPV16 E7 TCRbeta chain-P2A-TCRalpha chain, HPV16 E7 specific TCR (see WO2015/184228), TCRβ and TCRα chains joined by P2A; expressed in CD8+ T cells) MAPGLLCWALLCLLGAGLVDAGVTQSPTHLIKTRGQQVTLRCSPKSGHDTVSWYQQALGQGPQFIFQYYEEEERQRGNFPDRFSGHQFPNYSSELNVNALLLGDSALYLCASSLGWRGGRYNEQFFGPGTRLTVLEDLRNVTPPKVSLFEPSKAEIANKQKATLVCLARGFFPDHVELSWWVNGKEVHSGVCTDPQAYKESNYSYCLSSRLRVSATFWHNPRNHFRCQVQFHGLSEEDKWPEGSPKPVTQNISAEAWGRADCGITSASYQQGVLSATILYEILLGKATLYAVLVSTLVVMAMVKRKNSRAKRSGSGATNFSLLKQAGDVEENPGPMWGVFLLYVSMKMGGTTGQNIDQPTEMTATEGAIVQINCTYQTSGFNGLFWYQQHAGEAPTFLSYNVLDGLEEKGRFSSFLSRSKGYSYLLLKELQMKDSASYLCASVDGNNRLAFGKGNQVVVIPNIQNPEPAVYQLKDPRSQDSTLCLFTDFDSQINVPKTMESGTFITDKCVLDMKAMDSKSNGAIAWSNQTSFTCQDIFKETNATYPSSDVPCDATLTEKSFETDMNLNFQNLLVIVLRILLLKVAGFNLLMTLRLWSS",anti-tumor response (bioluminescence),[3],anti-tumor response
